Our source for the MAPPIT signal, % of WT values is publication PMC3438196.

What all share (assay): two-hybrid; MAPPIT (mammalian two-hybrid) in intact HEK293T cells: bait on the EpoR/leptin receptor chimera, prey on gp130 fragments, pXP2d2-rPAP1-luciferase reporter; fold induction of luciferase, Epo-stimulated (10 ng/ml hEpo) over unstimulated; 6-well or 96-well calcium phosphate transfection
For assay [1], the target named is Apobec3G T32D MAPPIT bait (human) (UniProt Q9HC16).
Assay [2] has as its target Apobec3G RD102-103SS MAPPIT bait (human) (UniProt Q9HC16).
Assay [3] concerns the target Apobec3G D128K MAPPIT bait (human) (UniProt Q9HC16).
In assay [4] the target is Apobec3G T32E MAPPIT bait (human) (UniProt Q9HC16).
Assay [5] has as its target Apobec3G E110S MAPPIT bait (human) (UniProt Q9HC16).
Assay [6] concerns the target Apobec3G K63E MAPPIT bait (human) (UniProt Q9HC16).
Assay [7] addresses Apobec3G RD102-103EK MAPPIT bait (human) (UniProt Q9HC16).
In assay [8] the target is Apobec3G QE132-133AA MAPPIT bait (human) (UniProt Q9HC16).
The target of assay [9] is Apobec3G Y19A MAPPIT bait (human) (UniProt Q9HC16).
Assay [10] addresses Apobec3G W34A MAPPIT bait (human) (UniProt Q9HC16).
The target in assay [11] is Apobec3G M12A MAPPIT bait (human) (UniProt Q9HC16).
Assay [12] has as its target Apobec3G R55A MAPPIT bait (human) (UniProt Q9HC16).
Assay [13] concerns the target Apobec3G TF106-107AA MAPPIT bait (human) (UniProt Q9HC16).
Assay [14] deals with Apobec3G R14S MAPPIT bait (human) (UniProt Q9HC16).
Assay [15] addresses Apobec3G V9A MAPPIT bait (human) (UniProt Q9HC16).
Assay [16] has as its target Apobec3G S137A MAPPIT bait (human) (UniProt Q9HC16).

Sequence of Apobec3G T32D MAPPIT bait (human) (Q9HC16 whole entry T32D): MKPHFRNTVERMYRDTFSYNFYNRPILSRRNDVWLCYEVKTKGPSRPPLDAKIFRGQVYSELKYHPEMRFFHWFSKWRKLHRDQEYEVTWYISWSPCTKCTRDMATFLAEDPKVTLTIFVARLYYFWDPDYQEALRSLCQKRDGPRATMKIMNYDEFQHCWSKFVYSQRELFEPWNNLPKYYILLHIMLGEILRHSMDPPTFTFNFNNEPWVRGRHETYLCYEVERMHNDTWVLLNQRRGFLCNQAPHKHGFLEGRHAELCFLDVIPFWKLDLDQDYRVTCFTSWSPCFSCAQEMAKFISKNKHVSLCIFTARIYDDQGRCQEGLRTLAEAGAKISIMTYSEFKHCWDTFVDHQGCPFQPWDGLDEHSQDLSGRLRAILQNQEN
Sequence of Apobec3G S137A MAPPIT bait (human) (Q9HC16 whole entry S137A): as the sequence (Q9HC16 whole entry T32D) above, with D32T, S137A counted along it
Sequence of Apobec3G R14S MAPPIT bait (human) (Q9HC16 whole entry R14S): as the sequence (Q9HC16 whole entry T32D) above, with R14S, D32T counted along it
Sequence of Apobec3G QE132-133AA MAPPIT bait (human) (Q9HC16 whole entry Q132A/E133A): as the sequence (Q9HC16 whole entry T32D) above, with D32T, Q132A, E133A counted along it
Sequence of Apobec3G RD102-103SS MAPPIT bait (human) (Q9HC16 whole entry R102S/D103S): as the sequence (Q9HC16 whole entry T32D) above, with D32T, R102S, D103S counted along it
Sequence of Apobec3G D128K MAPPIT bait (human) (Q9HC16 whole entry D128K): as the sequence (Q9HC16 whole entry T32D) above, with D32T, D128K counted along it
Sequence of Apobec3G E110S MAPPIT bait (human) (Q9HC16 whole entry E110S): as the sequence (Q9HC16 whole entry T32D) above, with D32T, E110S counted along it
Sequence of Apobec3G V9A MAPPIT bait (human) (Q9HC16 whole entry V9A): as the sequence (Q9HC16 whole entry T32D) above, with V9A, D32T counted along it
Sequence of Apobec3G R55A MAPPIT bait (human) (Q9HC16 whole entry R55A): as the sequence (Q9HC16 whole entry T32D) above, with D32T, R55A counted along it
Sequence of Apobec3G W34A MAPPIT bait (human) (Q9HC16 whole entry W34A): as the sequence (Q9HC16 whole entry T32D) above, with D32T, W34A counted along it
Sequence of Apobec3G T32E MAPPIT bait (human) (Q9HC16 whole entry T32E): as the sequence (Q9HC16 whole entry T32D) above, with D32E counted along it
Sequence of Apobec3G TF106-107AA MAPPIT bait (human) (Q9HC16 whole entry T106A/F107A): as the sequence (Q9HC16 whole entry T32D) above, with D32T, T106A, F107A counted along it
Sequence of Apobec3G M12A MAPPIT bait (human) (Q9HC16 whole entry M12A): as the sequence (Q9HC16 whole entry T32D) above, with M12A, D32T counted along it
Sequence of Apobec3G Y19A MAPPIT bait (human) (Q9HC16 whole entry Y19A): as the sequence (Q9HC16 whole entry T32D) above, with Y19A, D32T counted along it
Sequence of Apobec3G RD102-103EK MAPPIT bait (human) (Q9HC16 whole entry R102E/D103K): as the sequence (Q9HC16 whole entry T32D) above, with D32T, R102E, D103K counted along it
Sequence of Apobec3G K63E MAPPIT bait (human) (Q9HC16 whole entry K63E): as the sequence (Q9HC16 whole entry T32D) above, with D32T, K63E counted along it

For “Gagpol MAPPIT prey (pMG2-Gagpol) (natural protein)”, the MAPPIT signal, % of WT in assay [1] is 111 % of WT; in assay [2] it was 63 % of WT; in assay [3] it was 98 % of WT; in assay [4], 81 % of WT; in assay [5], 80 % of WT; in [6], 104 % of WT. The MAPPIT signal, % of WT in [7] is 85 % of WT; in assay [8] it was 80 % of WT; in [9], 36 % of WT; in assay [10] it was 50 % of WT; in [11], 25 % of WT; in assay [12], 64 % of WT. Further, the MAPPIT signal, % of WT in assay [13] is 94 % of WT; in assay [14], 106 % of WT; in assay [15], 101 % of WT; in assay [16] it was 127 % of WT.
